Measurements from article PMC6783313 (Nature structural & molecular biology, 2019).

B1: ClpX(E183Q) from Listeria monocytogenes (natural protein)
chain: not shown

Columns and labels:
cryo-EM structure = target: the molecule itself; assay: cryo-EM structure
[1] = target: B1; assay: HDX-MS

Row | Binder | stoichiometry N (cryo-EM structure) | binding result [1]
1 | B1 | 6 | 
2 | ClpP2(S98A) from Listeria monocytogenes (natural protein) not shown | 7 | binds
